Patent publication US20130252307A1

Legend:
[1] = molecular target: (I27G32C-A75C)8 polypeptide (UniProt Q8WZ42)
[2] = molecular target: (I27G32C-A75C)8 polypeptide, Q8WZ42
[3] = molecular target: (I27G32C-A75C)8 polypeptide (UniProt Q8WZ42); assay: given as k10 (k10=δ0); three-state kinetic model fitted to force-dependent disulfide reduction rates, single-molecule AFM force-clamp, pH 7.2; not a direct binding assay
[4] = molecular target: (I27G32C-A75C)8 polypeptide (UniProt Q8WZ42); assay: given as α0 (k01=α0[Trx]); three-state kinetic model fitted to force-dependent disulfide reduction rates, single-molecule AFM force-clamp, pH 7.2; not a direct binding assay

Question: How did the “rate of disulfide reduction at pH 5, 100 pN” value [1] turn out when Trx from Acetobacter aceti was run?
Answer: Its value is “active at pH 5 (0.6×10^5 M^-1 s^-1 at 100 pN)”.

Question: What does the source list for Trx from Sulfolobus tokodaii?
Answer: rate of disulfide reduction at pH 5 [1]: does not show detectable activity at pH 5; rate of disulfide reduction at pH 7, 50 pN [1]: active at pH 7 (0.12×10^5 M^-1 s^-1 at 50 pN)

B1: wild type human Trx enzyme (protein)
chain: VKQIESKTAFQEALDAAGDKLVVVDFSATWCGPCKMIKPFFHSLSEKYSNVIFLEVDVDDCQDVASECEVKCMPTFQFFKKGQKVGEFSGANKEKLEATINELV
Question: Which “rate of reduction at pH 5, fold lower than LBCA” value [2] does the source give for B1 here?
Answer: Its value is “modern E. coli and human thioredoxin show ˜20 fold lower rates at this pH”.

Question: What about the “reoxidation of substrate disulfide bonds during refolding (step sizes in the probe pulse)” value [2] of the same molecule?
Answer: Its value is “none of the refolded domains formed a disulfide bond, indicating that the wild type form of thioredoxin does not catalyze reoxidation”.

B2: C35S human thioredoxin mutant (hTrx^C35S) (protein)
chain: VKQIESKTAFQEALDAAGDKLVVVDFSATWCGPSKMIKPFFHSLSEKYSNVIFLEVDVDDCQDVASECEVKCMPTFQFFKKGQKVGEFSGANKEKLEATINELV
Question: For B2, which “reoxidation of substrate disulfide bonds during refolding (step sizes in the probe pulse)” value [2] is on record?
Answer: The value was “the step sizes during the probe pulse are now entirely composed of 11 and 14 nm steps, indicating the full reoxidation of all the disulfide bonds”.

B3: last common ancestor of animals and fungi (LAFCA) Trx (protein)
chain: MVIQVTNKDEFESILSEADKLVVVDFTATWCGPCKMIAPKFEELSEEYPDNVVFLKVDVDEVEDVAAEYGISAMPTFQFFKNGKKVDELTGANQEKLKAMIKKHAA
Question: Which “staircases of single reduction events (AFM force-clamp)” value (from here on “staircases of single reduction events”) [2] does the source give for B3 here?
Answer: Its value is “All the ancestral enzymes resurrected using the methods described herein were able to trigger staircases of reduction events”.

Question: And the Δx12 (Å) [2]?
Answer: The Δx12 (Å) was -0.74 Å.

Question: What about the β0 (s-^1) [2] of the same molecule?
Answer: Its β0 (s-^1) is 37 s⁻¹.

Question: What about the λ0 [2] of the same molecule?
Answer: The λ0 was 0.06 s⁻¹.

Question: What about the koff [3] of the same molecule?
Answer: The koff was 4.6 s⁻¹.

Question: What about the kon [4] of the same molecule?
Answer: Its kon is 810000 M⁻¹ s⁻¹.

B4: last bacterial common ancestor (LBCA) Trx (protein)
chain: MSVIEINDENFEEEVLKSDKPVLVDFWAPWCGPCRMIAPIIEELAEEYEGKVKFAKVNVDENPETAAKYGIMSIPTLLLFKNGEVVDKLVGARPKEALKERIEKHL
Question: What does the source list for B4?
Answer: rate of catalysis at pH 5 [2]: showed a high rate of catalysis at pH 5, where extant enzymes are largely inactive; reduction rates at pH 5 [2]: the reduction rates observed at pH 5 are strikingly similar to those measured at pH 7.2; staircases of single reduction events (AFM force-clamp) [2]: All the ancestral enzymes resurrected using the methods described herein were able to trigger staircases of reduction events; Δx02 (Å) [2]: 0.19 Å; Δx12 (Å) [2]: -0.74 Å; β0 (s-^1) [2]: 30 s⁻¹; γ0 [2]: 0.004 µM⁻¹ s⁻¹; λ0 [2]: 0.09 s⁻¹; koff [3]: 5.8 s⁻¹; kon [4]: 470000 M⁻¹ s⁻¹

B5: archaeal/eukaryotic common ancestor (AECA) Trx (protein)
chain: MSVIEINDENFDEVIKKSDKVVVVDFWAEWCGPCRMIAPIIEELAEEYAGKVVFGKVNVDENPEIAAKYGIMSIPTLLFFKNGKVVDQLVGARPKEALKERIKKYL
Question: For B5, which “rate constant of disulfide bond reduction extrapolated to zero force (pH 7.2)” value [2] is on record?
Answer: The value was 30×10^5 M^-1 s^-1 for AECA Trx.

Question: And the “reduction rate constant at pH 5 extrapolated to zero force” value [2]?
Answer: Its value is 19×10^5 M^-1 s^-1.

Question: And the “staircases of single reduction events” value [2]?
Answer: The value was “All the ancestral enzymes resurrected using the methods described herein were able to trigger staircases of reduction events”.

Question: What about the Δx02 (Å) [2] of the same molecule?
Answer: The Δx02 (Å) was 0.19 Å.

Question: What about the Δx12 (Å) [2] of the same molecule?
Answer: The Δx12 (Å) was -0.84 Å.

Question: And the β0 (s-^1) [2]?
Answer: Its β0 (s-^1) is 25 s⁻¹.

Question: What about the γ0 [2] of the same molecule?
Answer: The γ0 was 0.019 µM⁻¹ s⁻¹.

Question: And the λ0 [2]?
Answer: Its λ0 is 0.21 s⁻¹.

B6: last archaeal common ancestor (LACA) Trx (protein)
chain: MSVVQLNDENFDEVIKKNNKVVVVDFWAEWCGPCRMIAPIIEELAKEYAGKVVFGKLNVDENPETAAKYGIMSIPTLLFFKNGKVVDQLVGAMPKEALKERIKKYL
Question: What does the source list for B6?
Answer: rate constant of disulfide bond reduction extrapolated to zero force (pH 7.2) [2]: 29×10^5 M^-1 s^-1 for LACA Trx; reduction rate constant at pH 5 extrapolated to zero force [2]: 6.2×10^5 M^-1 s^-1; staircases of single reduction events (AFM force-clamp) [2]: All the ancestral enzymes resurrected using the methods described herein were able to trigger staircases of reduction events; Δx12 (Å) [2]: -0.76 Å; β0 (s-^1) [2]: 43 s⁻¹; λ0 [2]: 0.38 s⁻¹

B7: last common ancestor of cyanobacterial and deinococcus/thermus groups (LPBCA) Trx (protein)
chain: MSVIEVTDENFEQEVLKSDKPVLVDFWAPWCGPCRMIAPIIEELAKEYEGKVKVVKVNVDENPNTAAQYGIRSIPTLLLFKNGQVVDRLVGAQPKEALKERIDKHL
Question: Which results are given for B7?
Answer: staircases of single reduction events (AFM force-clamp) [2]: All the ancestral enzymes resurrected using the methods described herein were able to trigger staircases of reduction events; Δx02 (Å) [2]: 0.17 Å; Δx12 (Å) [2]: -0.71 Å; β0 (s-^1) [2]: 30 s⁻¹; γ0 [2]: 0.017 µM⁻¹ s⁻¹; λ0 [2]: 0.19 s⁻¹; koff [3]: 4.9 s⁻¹; kon [4]: 470000 M⁻¹ s⁻¹

B8: last eukaryotic common ancestor (LECA) Trx (protein)
chain: MVIQVTNKEEFEAILSEADKLVVVDFFATWCGPCKMIAPFFEELSEEYPDKVVFIKVDVDEVPDVAAKYGITSMPTFKFFKNGKKVDELVGANQEKLKQMILKHAP
Question: Which “staircases of single reduction events” value [2] does the source give for B8 here?
Answer: The value was “All the ancestral enzymes resurrected using the methods described herein were able to trigger staircases of reduction events”.

Question: And the Δx12 (Å) [2]?
Answer: Its Δx12 (Å) is -0.8 Å.

Question: And the β0 (s-^1) [2]?
Answer: The β0 (s-^1) was 38 s⁻¹.

Question: What about the λ0 [2] of the same molecule?
Answer: Its λ0 is 0.18 s⁻¹.

Question: And the koff [3]?
Answer: Its koff is 4.2 s⁻¹.

Question: What about the kon [4] of the same molecule?
Answer: The kon was 760000 M⁻¹ s⁻¹.

B9: last common ancestor of γ-proteobacteria (LGPCA) Trx (protein)
chain: MSIIHVTDDSFDQDVLKADKPVLVDFWAEWCGPCKMIAPILDEIAEEYEGKLKVAKVNIDENPETAAKYGIRGIPTLMLFKNGEVAATKVGALSKSQLKEFLDANL
Question: Which results are given for B9?
Answer: staircases of single reduction events (AFM force-clamp) [2]: All the ancestral enzymes resurrected using the methods described herein were able to trigger staircases of reduction events; Δx02 (Å) [2]: 0.17 Å; Δx12 (Å) [2]: -0.83 Å; β0 (s-^1) [2]: 34 s⁻¹; γ0 [2]: 0.012 µM⁻¹ s⁻¹; λ0 [2]: 0.35 s⁻¹; koff [3]: 3.8 s⁻¹; kon [4]: 480000 M⁻¹ s⁻¹
